Test results published in patent publication US20180125973A1 (AstraZeneca / MedImmune, published 2018).

Assays:
Murine CD73 on cells = target: T1, Murine CD73 on cells (murine, UniProt Q61503 29-551); test: cell-based or functional assay
T1 sequence (looked up): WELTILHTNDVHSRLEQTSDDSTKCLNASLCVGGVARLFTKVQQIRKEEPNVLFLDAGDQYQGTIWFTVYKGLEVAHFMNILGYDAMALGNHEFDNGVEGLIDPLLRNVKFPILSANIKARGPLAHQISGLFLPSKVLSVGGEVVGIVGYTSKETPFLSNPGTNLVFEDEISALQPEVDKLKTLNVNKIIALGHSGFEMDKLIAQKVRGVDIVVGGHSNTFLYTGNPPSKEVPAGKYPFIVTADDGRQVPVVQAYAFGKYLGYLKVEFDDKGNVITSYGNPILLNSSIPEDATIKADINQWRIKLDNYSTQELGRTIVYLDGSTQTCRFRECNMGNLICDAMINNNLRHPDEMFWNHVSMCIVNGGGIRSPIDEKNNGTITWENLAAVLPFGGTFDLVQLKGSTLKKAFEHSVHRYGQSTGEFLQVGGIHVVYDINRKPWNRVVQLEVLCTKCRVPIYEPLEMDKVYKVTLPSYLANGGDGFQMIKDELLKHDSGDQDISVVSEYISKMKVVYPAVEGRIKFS

Human CD73 on cells = target: T2, Human CD73 on cells (human, UniProt P21589 27-549); test: cell-based or functional assay
T2 sequence: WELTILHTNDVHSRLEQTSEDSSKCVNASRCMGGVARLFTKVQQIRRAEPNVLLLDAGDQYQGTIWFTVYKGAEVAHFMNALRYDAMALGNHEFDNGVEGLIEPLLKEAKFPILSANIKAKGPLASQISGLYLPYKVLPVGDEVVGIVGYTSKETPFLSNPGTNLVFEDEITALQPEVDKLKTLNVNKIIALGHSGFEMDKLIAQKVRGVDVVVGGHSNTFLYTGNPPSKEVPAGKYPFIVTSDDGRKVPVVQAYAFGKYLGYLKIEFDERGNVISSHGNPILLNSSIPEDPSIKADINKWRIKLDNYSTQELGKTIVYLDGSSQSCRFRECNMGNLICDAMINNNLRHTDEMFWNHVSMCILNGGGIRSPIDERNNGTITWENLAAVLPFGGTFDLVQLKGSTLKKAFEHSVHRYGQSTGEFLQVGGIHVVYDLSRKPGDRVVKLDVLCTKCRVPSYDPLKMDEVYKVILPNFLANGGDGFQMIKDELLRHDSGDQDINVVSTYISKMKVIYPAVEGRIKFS

B1: MEDI9447 (antibody, human IgG1, lambda, V domains shown)
VH: EVQLLESGGGLVQPGGSLRLSCAASGFTFSSYAYSWVRQAPGKGLEWVSAISGSGGRTYYADSVKGRFTISRDNSKNTLYLQMNSLRAEDTAVYYCARLGYGRVDEWGRGTLVTVSS
VL: QSVLTQPPSASGTPGQRVTISCSGSLSNIGRNPVNWYQQLPGTAPKLLIYLDNLRLSGVPDRFSGSKSGTSASLAISGLQSEDEADYYCATWDDSHPGWTFGGGTKLTVLG
B1 was tested, and the “Antibody-mediated internalization of cytotoxic FabZAP reagent into 4T1 cells, EC50” value (Murine CD73 on cells) was 0.0185 nM and the “Antibody-mediated internalization of cytotoxic FabZAP reagent into MDA-MB-231 cells, EC50” value (Human CD73 on cells) was 0.0035 nM.
